Source: FireProtDB (doi:10.1016/0022-2836(92)90557-z)

Conditions: Bacillus amyloliquefaciens; pH 6.3; 25 °C; Urea; Fluorescence; MES 1.00 M; NaCl 613 mM; reversible: yes; whole UniProt chain shown

B1: Ribonuclease wild type, P00648 (protein)
chain: MMKMEGIALKKRLSWISVCLLVLVSAAGMLFSTAAKTETSSHKAHTEAQVINTFDGVADYLQTYHKLPDNYITKSEAQALGWVASKGNLADVAPGKSIGGDIFSNREGKLPGKSGRTWREADINYTSGFRNSDRILYSSDWLIYKTTDHYQTFTKIR
denaturant midpoint (higher = more stable): 4.58 M
